Patent publication US20230026259A1, “CA2 COMPOSITIONS AND METHODS FOR TUNABLE REGULATION” (Obsidian Therapeutics, Inc., priority 2019, published 2023)

Test system: T cells
Assay: CD40L expression of CA2 regulated CD40L constructs in T cells by FACS (dose response, time course)
Assay type: cell-based
Conditions: for CD40L positive / MFI: Ligand N/A; for CD40L MFI / Percentage CD40L positive cells: constitutive CD40L
Text: CD40L constructs regulated by Carbonic anhydrase DDs were generated and cloned into lentiviral vectors. Purified T cells were thawed and cultured with aCD3 aCD28 Dynabeads (in the ratio of 3 beads to 1 T cell).
The constructs were transduced in T cells the next day. […]

B1: OT-001661: constitutive CD40L control (protein)
chain: MHMIETYNQTSPRSAATGLPISMKIFMYLLTVFLITQMIGSALFAVYLHRRLDKIEDERNLHEDFVFMKTIQRCNTGERSLSLLNCEEIKSQFEGFVKDIMLNKEETKKENSFEMQKGDQNPQIAAHVISEASSKTTSVLQWAEKGYYTMSNNLVTLENGKQLTVKRQGLYYIYAQVTFCSNREASSQAPFIASLCLKSPGRFERILLRAANTHSSAKPCGQQSIHLGGVFELQPGASVFVNVTDPSQVSHGTGFTSFGLLKL
CD40L positive (Example 9, All Cells): 98%
MFI (Example 9, All Cells): 20451
CD40L positive (Example 9, CD4+): 98.7%
MFI (Example 9, CD4+): 24489
CD40L positive (Example 9, CD8+): 97.8%
MFI (Example 9, CD8+): 14352
CD40L MFI (time course 2 hours, CD4+): 4042
Percentage CD40L positive cells (time course 2 hours, CD4+): 72.8%
CD40L MFI (time course 2 hours, CD8+): 2212
Percentage CD40L positive cells (time course 2 hours, CD8+): 56.9%
CD40L MFI (time course 4 hours, CD4+): 4651
Percentage CD40L positive cells (time course 4 hours, CD4+): 77%
CD40L MFI (time course 4 hours, CD8+): 2994
Percentage CD40L positive cells (time course 4 hours, CD8+): 63.2%
CD40L MFI (time course 6 hours, CD4+): 3156
Percentage CD40L positive cells (time course 6 hours, CD4+): 67.2%
CD40L MFI (time course 6 hours, CD8+): 1773
Percentage CD40L positive cells (time course 6 hours, CD8+): 48.5%
CD40L MFI (time course 24 hours, CD4+): 9491
Percentage CD40L positive cells (time course 24 hours, CD4+): 93.3%
CD40L MFI (time course 24 hours, CD8+): 3563
Percentage CD40L positive cells (time course 24 hours, CD8+): 71.2%
CD40L MFI (time course 48 hours, CD4+): 5639
Percentage CD40L positive cells (time course 48 hours, CD4+): 88.5%
CD40L MFI (time course 48 hours, CD8+): 2313
Percentage CD40L positive cells (time course 48 hours, CD8+): 71.1%
